Source: US5770410A, “Chiral synthesis with modified enzymes” (Genzyme Corporation, priority 1992, dated 1998)
Changes are numbered by the printed parent chain. Names may count otherwise.

B1: Bacillus stearothermophilus lactate dehydrogenase, wild type, SEQ ID NO: 3 (Geobacillus stearothermophilus) (protein)
chain: MKNNGGARVVVIGAGFVGASYVFALMNQGIADEIVLIDANESKAIGDAMDFNHGKVFAPKPVDIWHGDYDDCRDADLVVICAGANQKPGETRLDLVDKNIAIFRSIVESVMASGFQGLFLVATNPVDILTYATWKFSGLPHERVIGSGTILDTARFRFLLGEYFSVAPQNVHAYIIGEHGDTELPVWSQAYIGVMPIRKLVESKGEEAQKDLERIFVNVRDAAYQIIEKKGATYYGIAMGLARVTRAILHNENAILTVSAYLDGLYGERDVYIGVPAVINRNGIREVIEIELNDDEKNRFHHSAATLKSVLARAFTR
notes: made in house; host or cells: E. coli
B2: Bacillus stearothermophilus lactate dehydrogenase mutant WTrs (restriction-site construct pLDHrs, Cys97Thr, Ala235Gly, Ala236Gly; loop SEQ ID No 7) … (protein)
chain: B1 chain with C81T, A222G, A223G
notes: made in house; host or cells: E. coli TG2
B3: Bacillus stearothermophilus lactate dehydrogenase mutant 235/6GG (Ala235Gly, Ala236Gly) (Geobacillus stearothermophilus; A222G/A223G) (protein)
chain: B1 chain with A222G, A223G
notes: as for B1

How the values were obtained:
Assay in all cases: Steady-state kinetics, NADH-dependent reduction of 2-oxo acids (A340)
[1] = substrate: CC(=O)C(=O)O; type: biochemical, Bacillus stearothermophilus; conditions: other: -FBP, 25° C., pH 6
Procedure: (§1) Overnight cultures (11) were centrifuged and the packed cells were resuspended in 50 mM triethanolamine, pH 6.0. The cells were sonicated and the debris was removed by centrifugation. The protein in the supernatant was precipitated by the addition of 65% ammonium sulphate. The precipitate was spun down and resuspended in 50 mM triethanolamine, pH 6.0 and dialysed against the same buffer. After dialysis, NADH and FBP were added to the protein to final concentrations of 5 mM and 10 mM before loading onto an oxamate Sepharose column which had been pre-equilibrated with 50 mM triethanoloamine, pH 6.0, 3 mM NADH and 5 mM FBP. After washing off unbound protein with column buffer mutant LDH was eluted with 50 mM triethanolamine, pH 9.0, 0.3 M NaCl. The elutant was precipitated with 65% ammonium sulphate and then resuspended in and dialysed against 50 mM triethanolamine, pH 7.5. The protein was then loaded onto a Q-Sepharose Fast Flow column and eluted with a salt gradient. LDH eluted at a concentration of 0.25M NaCl. For the double glycine mutant enzyme, the first chromatography procedure with oxamate Sepharose was replaced by chromatography on Blue Sepharose -F3GA, otherwise the procedure was essentially the same. All proteins were judged to be greater than 98% pure from the intensity of Coomassie blue staining on an SDS Phast gel (Pharmacia). The yield of protein was usually 0.2 g/l of original broth.
(§2) Steady-state measurements were made by following the reduction in absorbance at 340 nm in the NADH/NAD^+ conversion. All assays were at 25° C. in the buffer Bis-Tris, pH 6, (20 mM), containing KC1 (50 mM) and when used fructose-1,6-bisphosphate at 5 mM. Protein concentration was determined from the absorbance at 280 nm using the value of 0.91 for 1 mg/ml protein in 1 cm path and an Mr of 33,000.
(§3) The specific substrates used in the evaluations are shown in the left column of Table 4. In Table 4, "235/6GG" denotes the mutant enzyme formed by substituting GlyGly for AlaAla at the 235-236 positions of the enzyme (Wilks et al., Biochemistry 1990, 29, 8587-8591), and "WTrs" denotes a mutant derived from the wild-type strain as shown in FIG. 1 of Wilks et al., Biochemistry 1992, 31, 7802-7806.

[2] = substrate: O=C(O)C(=O)CCc1ccccc1; type: biochemical, Bacillus stearothermophilus; conditions: other: +FBP (5 mM), 25° C., pH 6
Procedure: as §1, §2, §3

[3] = substrate: O=C(O)C(=O)Cc1ccccc1; type: biochemical, Bacillus stearothermophilus; conditions: other: +FBP (5 mM), 25° C., pH 6
Procedure: as §1, §2, §3

[4] = substrate: CC(=O)C(=O)O; type: biochemical; conditions: other: -FBP, 25° C., pH 6
From the text: (§4) Mutants were identified by making mini-preps and restricting with SacII and XbaI. Mutant mini-preps were restricted with EcoRI and XhoI and the small fragment was subcloned into PKK223-3 containing Ala235Gly, Ala236Gly mutant LDH from which the small EcoRI/XhoI fragment had been removed (Wilks et al. Biochemistry, 1990, 29, 8587). The resulting plasmid (pLDHrs) was transformed into competent E. coli TG2 cells.
as §1, §2, §3

[5] = substrate: CC(C)CC(=O)C(=O)O; type: biochemical; conditions: other: -FBP, 25° C., pH 6
From the text: as §4, §1, §2, §3

[6] = substrate: CCCCC(=O)C(=O)O; type: biochemical; conditions: other: -FBP, 25° C., pH 6
From the text: as §4, §1, §2, §3

[7] = substrate: O=C(O)C(=O)CCc1ccccc1; type: biochemical; conditions: 25° C., pH 6
From the text: as §4, §1, §2, §3

[8] = substrate: O=C(O)C(=O)Cc1ccccc1; type: biochemical; conditions: 25° C., pH 6
From the text: as §4, §1, §2, §3

Row | Protein | Km [1] [mM] | kcat [1] [s⁻¹] | kcat/Km [1] [M⁻¹ s⁻¹] | Km [2] [mM] | kcat [2] [s⁻¹] | kcat/Km [2] [M⁻¹ s⁻¹] | Km [3] [mM] | kcat [3] [s⁻¹] | kcat/Km [3] [M⁻¹ s⁻¹] | Km [4] [mM] | Km [5] [mM] | Km [6] [mM] | Km ([7]; other: +FBP (5 mM)) [mM] | kcat ([7]; other: +FBP (5 mM)) [s⁻¹] | kcat/Km ([7]; other: +FBP (5 mM)) [M⁻¹ s⁻¹] | Km ([7]; other: -FBP) [mM] | Km ([8]; other: +FBP (5 mM)) [mM] | kcat ([8]; other: +FBP (5 mM)) [s⁻¹] | kcat/Km ([8]; other: +FBP (5 mM)) [M⁻¹ s⁻¹] | Km ([8]; other: -FBP) [mM]
1 | B1 | 2 | 250 | 50000 | 0.6 | 6 | 10000 | 1.8 | 32.7 | 18000 | – | – | – | – | – | – | – | – | – | – | –
2 | B2 | – | – | – | – | – | – | – | – | – | 100 | 28 | 30 | 4 | 6 | 1500 | 12 | 6 | 58 | 9600 | 21
3 | B3 | – | – | – | 13 | 7 | 538 | 4.5 | 53.4 | 12000 | – | – | – | – | – | – | – | – | – | – | –
